Source: the supplement of paper PMC9732359
± gives the uncertainty stated by the source.

Assay: protein stability index of a GFP-peptide fusion (yeast GPS) (PSI 1-4); higher = more stable; sorted into four equal gates, so the index is relative within each strain
Procedure, shortened: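 The protein stability index of a peptide was calculated by multiplying its read frequency in each gate by that gate's number and adding the products. The peptides were tiled 17-residue stretches of yeast proteins, fused downstream of GFP on a Cherry-expressing plasmid and carried in yeast as a pooled library. Mid-log cultures in leucine-free medium were sorted into four equal gates by GFP/Cherry ratio, and each gate's plasmids were PCR-amplified and Illumina-sequenced.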

| Sequence | protein stability index (doa10∆) | protein stability index (pdr5∆) | protein stability index (san1∆) | protein stability index (ubr1∆) |
| --- | --- | --- | --- | --- |
| TQAKKLYHHTTKTILSG [SRP72] | 3.17 ± 0.069 | 2.86 ± 0.051 | 2.49 ± 0.098 | 3.26 ± 0.046 |
| TQHKVTQYKAGKASLFA [RPL42A] | 3.29 ± 0.076 | 3.04 ± 0.062 | 2.99 ± 0.059 | 2.96 ± 0.068 |
| TQLQRGGTSDMNYLLDN [CSI1] | 2.89 ± 0.097 | 2.82 ± 0.14 | 3.2 ± 0.078 | 3.02 ± 0.078 |
| TQSGGVRPFGVSTLIAG [PRE6] | 1.5 ± 0.14 | 1.72 ± 0.12 | 1.75 ± 0.17 | 1.43 ± 0.081 |
| TQTSKEQEIENNGLPMK [ITC1] | 2.9 ± 0.075 | 3.2 ± 0.12 | 2.87 ± 0.1 | 2.86 ± 0.089 |
| TREDVSPHYNSQKQTLI [SSN3] | 2.16 ± 0.05 | 2.71 ± 0.05 | 2.15 ± 0.048 | 2.81 ± 0.051 |
| TRGPFHFRAPSRILYKA [RPL16B] | 2.3 ± 0.064 | 2.43 ± 0.045 | 2.08 ± 0.068 | 2.27 ± 0.042 |
| TRINGLNSNNSIIGNKN [REC8] | 3.2 ± 0.089 | 3.04 ± 0.072 | 3.21 ± 0.048 | 2.98 ± 0.051 |
| TRLWGSVYYHKGNFRTK [SNU114] | 3.35 ± 0.064 | 3.46 ± 0.093 | 3.35 ± 0.06 | 3.32 ± 0.082 |
| TRQFEGRSNEIVKTTTK [PRP8] | 3.14 ± 0.058 | 3.12 ± 0.07 | 2.89 ± 0.055 | 3 ± 0.044 |
| TRSAKKMVIAELLPHYP [YJR042W/NUP85] | 2.83 ± 0.089 | 2.81 ± 0.087 | 2.89 ± 0.052 | 3 ± 0.074 |
| TRSKRLSQVYPTLVRSV [CSN12] | 1.72 ± 0.12 | 2.1 ± 0.22 | – | – |
| TRSNPPFKRKMLLVDII [REC8] | 1.9 ± 0.098 | 1.98 ± 0.087 | 2.14 ± 0.16 | 2.58 ± 0.061 |
| TRVHQLMLEDAVTEREV [MCD1] | 3.35 ± 0.22 | 2.92 ± 0.16 | 2.36 ± 0.23 | 2.89 ± 0.12 |
| TRYNRDYMLSMANIPER [SNU114] | 1.48 ± 0.073 | 2.44 ± 0.055 | 2.62 ± 0.1 | 1.43 ± 0.047 |
| TSAGIMDHEEARRKHVS [RPS22A] | 2.87 ± 0.3 | 2.73 ± 0.23 | 2.87 ± 0.24 | 2.62 ± 0.15 |
| TSCTIPKAVVDHINGSG [GAL11] | 2.23 ± 0.083 | 2.78 ± 0.077 | 1.24 ± 0.12 | 1.79 ± 0.087 |
| TSGEAAALGMGLCMLGT [RPN2] | 2.92 ± 0.19 | 2.95 ± 0.21 | 3.08 ± 0.12 | 2.68 ± 0.1 |
| TSIHSTISILAAPSGNY [RRP43] | 1.59 ± 0.038 | 1.85 ± 0.033 | 1.97 ± 0.05 | 1.67 ± 0.029 |
| TSLLNKVLKSGSGVDSS [RRP42] | 2.87 ± 0.12 | 2.88 ± 0.077 | 2.6 ± 0.13 | 3.21 ± 0.12 |
| TSLLYLSTLEPSTSITL [RPN9] | 2.36 ± 0.059 | 1.89 ± 0.049 | 1.91 ± 0.089 | 2.13 ± 0.045 |
| TSRVFAKIISKAPEQFI [YML103C/NUP188] | – | 3.08 ± 0.14 | – | – |
| TSSKSSSLSAIIVFGYP [YDL088C/ASM4] | 2.31 ± 0.055 | 2.06 ± 0.048 | 2.71 ± 0.072 | 2.58 ± 0.05 |
| TSSNIVLETHESGIKPY [RPT6] | 2.55 ± 0.097 | 2.76 ± 0.061 | 2.68 ± 0.099 | 2.47 ± 0.061 |
| TSSQKEPFFLVTKITDM [SRB8] | 2.36 ± 0.059 | 2.72 ± 0.071 | 2.52 ± 0.054 | 2.62 ± 0.054 |
| TTAEPKAKRAKTGSAST [TAF14] | 3.2 ± 0.077 | 3.14 ± 0.093 | 3.34 ± 0.053 | 3.29 ± 0.053 |

| Sequence | protein stability index (doa10∆) | protein stability index (pdr5∆) | protein stability index (san1∆) | protein stability index (ubr1∆) |
| --- | --- | --- | --- | --- |
| TTDDEEEPIKKLCYVLG [RET1] | 3.42 ± 0.27 | 3.29 ± 0.18 | – | 3.46 ± 0.17 |
| TTESSDLKEGLQDLSRY [GRR1] | 3.24 ± 0.12 | 3.33 ± 0.11 | 3.33 ± 0.052 | 3.55 ± 0.045 |
| TTKLAFLVEYEGQENNY [SIR4] | 2.87 ± 0.085 | 2.85 ± 0.068 | 2.4 ± 0.1 | 3.19 ± 0.052 |
| TTLTIMRILPRETDPLV [RPT4] | 2.63 ± 0.068 | 2.62 ± 0.057 | 2.73 ± 0.064 | 2.52 ± 0.039 |
| TTRNGFMEAQGAGIQII [FAS2] | 2.81 ± 0.13 | 2.31 ± 0.12 | – | 3.26 ± 0.11 |
| TTSEKQEVTNEAPFLTS [GAL11] | 3.2 ± 0.093 | 3.35 ± 0.076 | 3.14 ± 0.11 | 3.36 ± 0.067 |
| TVEGISKLLREHGYQSR [RPB2] | 3.4 ± 0.21 | 2.97 ± 0.21 | – | 2.64 ± 0.093 |
| TVHEMEEELKKLRDHEP [SMC4] | 3.54 ± 0.27 | 3.26 ± 0.22 | – | 3.62 ± 0.2 |
| TVIKFRAGVCEYNEDSR [RPN13] | 2.26 ± 0.12 | 1.96 ± 0.071 | 1.8 ± 0.13 | 2.77 ± 0.07 |
| TVLADEFIAHRLGLIPL [RPB3] | 2.4 ± 0.087 | 2.16 ± 0.12 | 2.96 ± 0.047 | 3.12 ± 0.071 |
| TVLESLGRLNKLRKIAI [LIN1] | 2.66 ± 0.057 | 2.69 ± 0.049 | 2.66 ± 0.058 | 2.95 ± 0.035 |
| TVMYQRRSKMNPLWNAI [PRE4] | 2.83 ± 0.084 | 3.18 ± 0.11 | 2.66 ± 0.089 | 3.09 ± 0.072 |
| TVTDDARIFEFPKTTVA [RPL18A] | 2.68 ± 0.056 | 2.7 ± 0.048 | 2.7 ± 0.061 | 2.42 ± 0.057 |
| TVVISQKKVPDKLLDPT [SCL1] | 2.85 ± 0.1 | 2.31 ± 0.085 | 3.23 ± 0.064 | 2.86 ± 0.068 |
| TWEECVFFDDDPLYDIT [REC8] | 3 ± 0.13 | 3.24 ± 0.14 | 2.95 ± 0.06 | 3.08 ± 0.059 |
| TYAAEIAHNISAKNRVV [RPL32] | 2.07 ± 0.043 | 2.27 ± 0.052 | 2.28 ± 0.068 | 2.13 ± 0.039 |
| TYKYFEVILVDPQHKAI [RPL15A] | 2.32 ± 0.083 | 2.09 ± 0.074 | 2.5 ± 0.15 | 2.63 ± 0.12 |
| TYVITKNGKIYLKHNSI [RET1] | 2.72 ± 0.053 | 2.54 ± 0.046 | 2.45 ± 0.067 | 2.64 ± 0.028 |
| TYVLNTWTNSKIFIKDP [YML103C/NUP188] | 2 ± 0.056 | 2.15 ± 0.046 | 2.3 ± 0.058 | 2.23 ± 0.034 |
| VAARGLDIPNVSLVVNF [PRP28] | 2 ± 0.12 | 2.5 ± 0.096 | 2.04 ± 0.12 | 3.1 ± 0.15 |
| VADAKQLGEWAGLGKID [RPS12] | 3.67 ± 0.28 | – | 3.46 ± 0.24 | 3.35 ± 0.13 |
| VAFDNINTHIETLAYNS [SNF2] | 2.56 ± 0.1 | 2.85 ± 0.074 | 2.5 ± 0.063 | 1.99 ± 0.058 |
| VAGLEDKFRKACSSSGR [SIR3] | 3.16 ± 0.14 | 2.93 ± 0.095 | 2.98 ± 0.18 | 2.9 ± 0.056 |
| VAHSSRLANLIDYKLRV [SMB1] | 3.58 ± 0.15 | 3.26 ± 0.15 | 2.5 ± 0.2 | 3.17 ± 0.066 |
| VALTGLLIRSKTEDPKG [YML031W/NDC1] | 1.71 ± 0.041 | 2.21 ± 0.042 | 1.73 ± 0.052 | 2.28 ± 0.032 |
